According to patent publication US20050215503, “HIF oligonucleotide decoy molecules” (published 2005):

B1: decoy 865/866 (dsDNA)
DNA 1: AGCAGACGTGCAGGCA
DNA 2: TGCCTGCACGTCTGCT
B2: decoy 825/826 (dsDNA)
DNA 1: AGGAGACGTGCGAGAA
DNA 2: TTCTCGCACGTCTCCT
B3: decoy 889/890 (dsDNA)
DNA 1: TGCATACGTGCAGGTC
DNA 2: GACCTGCACGTATGCA
B4: decoy 875/876 (dsDNA)
DNA 1: TGCAGACGTGCAGGTC
DNA 2: GACCTGCACGTCTGCA
B5: decoy 827/828 (dsDNA)
DNA 1: AGGTTACGTGCGGACA
DNA 2: TGTCCGCACGTAACCT
B6: decoy 869/870 (dsDNA)
DNA 1: AGCAGACGTGCAGGGT
DNA 2: ACCCTGCACGTCTGCT
B7: decoy 881/882 (dsDNA)
DNA 1: GGCTGCAGGAGACGTGGAGAA
DNA 2: TTCTCCACGTCTCCTGCAGCC
B8: decoy 883/884 (dsDNA)
DNA 1: AGAAGACGTGCAGGAT
DNA 2: ATCCTGCACGTCTTCT
B9: decoy 863/864 (dsDNA)
DNA 1: AGCAGACGTGCAGGAT
DNA 2: ATCCTGCACGTCTGCT
B10: decoy 885/886 (dsDNA)
DNA 1: TACAGACGTGCAGGTC
DNA 2: GACCTGCACGTCTGTA
B11: decoy 857/858 double (dsDNA)
DNA 1: GCGGACGTGCGGGAACCCACGTGTAGG
DNA 2: CCTACACGTGGGTTCCCGCACGTCCGC
B12: decoy 907 double (dsDNA)
DNA 1: GAAATACGTGCGTGTGTACGTGCAGG
DNA 2: CCTGCACGTACACACGCACGTATTTC
B13: decoy 819/820 double (dsDNA)
DNA 1: GAAATACGTGCGCTTTGTGTGTACGTGCAGGAA
DNA 2: TTCCTGCACGTACACACAAAGCGCACGTATTTC
B14: decoy 909 double (dsDNA)
DNA 1: AGCGGACGTGCAGATGCACGTCCTCT
DNA 2: AGAGGACGTGCATCTGCACGTCCGCT
B15: decoy 841/842 double (dsDNA)
DNA 1: AGCGGACGTGCAGAAGTTGCACGTCCTCT
DNA 2: AGAGGACGTGCAACTTCTGCACGTCCGCT
B16: 895/896 H5/H5 (dsDNA)
DNA 1: CACCAGCGTACGTGCCTCAGG
DNA 2: CCTGAGGCACGTACGCTGGTG
modifications: PS at 5 linkages from 3' end, both strands
B17: 895/896 PS/PO (dsDNA)
DNA 1: CACCAGCGTACGTGCCTCAGG
DNA 2: CCTGAGGCACGTACGCTGGTG
modifications: 895: full PS; 896: unmodified
B18: 895/896 H5/PO (dsDNA)
DNA 1: CACCAGCGTACGTGCCTCAGG
DNA 2: CCTGAGGCACGTACGCTGGTG
modifications: 895: PS at 5 linkages from 3' end; 896: unmodified
B19: 895/896 H2/H2 (dsDNA)
DNA 1: CACCAGCGTACGTGCCTCAGG
DNA 2: CCTGAGGCACGTACGCTGGTG
modifications: PS at 2 linkages from 3' end, both strands
B20: 895/896 H3/H3 (dsDNA)
DNA 1: CACCAGCGTACGTGCCTCAGG
DNA 2: CCTGAGGCACGTACGCTGGTG
modifications: PS at 3 linkages from 3' end, both strands
B21: 895/896 PS/PS (dsDNA)
DNA 1: CACCAGCGTACGTGCCTCAGG
DNA 2: CCTGAGGCACGTACGCTGGTG
modifications: full PS both strands
B22: 895/896 H3/PS (dsDNA)
DNA 1: CACCAGCGTACGTGCCTCAGG
DNA 2: CCTGAGGCACGTACGCTGGTG
modifications: 895: PS at 3 linkages from 3' end; 896: full PS
B23: 895/896 H6/H6 (dsDNA)
DNA 1: CACCAGCGTACGTGCCTCAGG
DNA 2: CCTGAGGCACGTACGCTGGTG
modifications: PS at 6 linkages from 3' end, both strands
B24: 895/896 H4/H4 (dsDNA)
DNA 1: CACCAGCGTACGTGCCTCAGG
DNA 2: CCTGAGGCACGTACGCTGGTG
modifications: PS at 4 linkages from 3' end, both strands
B25: decoy 895/896 (dsDNA)
DNA 1: CACCAGCGTACGTGCCTCAGG
DNA 2: CCTGAGGCACGTACGCTGGTG

Target: T1, HIF-1 (HIF-1alpha/HIF-1beta (ARNT) heterodimer) (Homo sapiens?, UniProt Q16665;P27540 Q16665:1-826,P27540:2-789)
T1 sequence (Q16665 whole entry, chain 1 of 2): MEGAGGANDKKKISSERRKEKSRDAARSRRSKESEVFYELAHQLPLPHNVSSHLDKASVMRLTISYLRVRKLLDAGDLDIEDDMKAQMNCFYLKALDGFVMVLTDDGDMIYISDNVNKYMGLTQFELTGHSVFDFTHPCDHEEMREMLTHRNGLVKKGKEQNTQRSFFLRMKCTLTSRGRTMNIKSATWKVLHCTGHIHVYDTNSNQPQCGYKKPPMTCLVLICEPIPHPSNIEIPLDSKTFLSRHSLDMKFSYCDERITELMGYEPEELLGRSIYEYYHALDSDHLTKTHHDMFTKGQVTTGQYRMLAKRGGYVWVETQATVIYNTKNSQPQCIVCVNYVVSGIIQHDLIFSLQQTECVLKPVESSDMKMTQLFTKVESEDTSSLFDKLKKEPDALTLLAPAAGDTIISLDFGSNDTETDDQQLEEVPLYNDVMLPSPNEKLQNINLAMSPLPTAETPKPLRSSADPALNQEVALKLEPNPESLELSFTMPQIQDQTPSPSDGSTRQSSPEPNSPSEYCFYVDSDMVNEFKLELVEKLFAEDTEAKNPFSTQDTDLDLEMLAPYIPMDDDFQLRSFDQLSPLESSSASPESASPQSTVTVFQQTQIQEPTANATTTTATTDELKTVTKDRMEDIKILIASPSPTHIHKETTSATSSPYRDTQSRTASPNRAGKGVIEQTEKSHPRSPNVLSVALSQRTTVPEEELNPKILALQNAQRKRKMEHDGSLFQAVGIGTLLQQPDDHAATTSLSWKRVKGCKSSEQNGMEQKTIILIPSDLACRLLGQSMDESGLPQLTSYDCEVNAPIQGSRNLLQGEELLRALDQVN
T1 sequence (P27540 2-789, chain 2 of 2): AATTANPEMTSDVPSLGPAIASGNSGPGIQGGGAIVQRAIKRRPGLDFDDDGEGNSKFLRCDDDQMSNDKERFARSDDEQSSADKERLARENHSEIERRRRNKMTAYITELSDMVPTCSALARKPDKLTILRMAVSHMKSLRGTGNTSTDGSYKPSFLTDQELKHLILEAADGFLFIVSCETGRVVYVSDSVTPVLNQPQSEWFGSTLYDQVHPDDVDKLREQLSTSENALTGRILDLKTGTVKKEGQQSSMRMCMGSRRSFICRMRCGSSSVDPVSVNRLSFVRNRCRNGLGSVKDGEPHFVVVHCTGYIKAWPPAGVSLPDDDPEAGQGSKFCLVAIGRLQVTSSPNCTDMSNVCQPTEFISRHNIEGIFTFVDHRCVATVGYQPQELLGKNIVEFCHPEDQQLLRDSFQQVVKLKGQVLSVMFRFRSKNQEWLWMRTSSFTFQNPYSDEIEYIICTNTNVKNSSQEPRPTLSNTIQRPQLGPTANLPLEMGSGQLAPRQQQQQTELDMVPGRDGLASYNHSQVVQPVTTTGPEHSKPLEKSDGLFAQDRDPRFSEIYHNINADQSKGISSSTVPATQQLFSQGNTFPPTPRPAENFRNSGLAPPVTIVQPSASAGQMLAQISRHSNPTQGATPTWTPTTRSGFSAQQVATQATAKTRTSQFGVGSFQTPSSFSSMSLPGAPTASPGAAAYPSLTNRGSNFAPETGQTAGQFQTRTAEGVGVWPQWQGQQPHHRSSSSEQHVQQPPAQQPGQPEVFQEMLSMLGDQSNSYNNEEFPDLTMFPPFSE
Experiment: competition; TransAM
Details: protein: extract; tags: none (endogenous, nuclear extract)
Experimental: (§1) To assess the relative affinities of oligonucleotides for a HIF-1α containing complex, the HIF-1 TransAM assay (Active Motif, Catalog # 47096) was utilized. The assay was performed according to manufacturer's instructions. Briefly, a double-stranded oligonucletide containing the hypoxia response element (HRE) was immobilized on a 96-well plate. A nuclear extract containing HIF-1α complexes was incubated and allowed to bind to the immobilized oligonucleotide. The unbound material was washed away and the bound HIF-1α detected using an antibody that specificially recognizes HIF-1α. The anti-HIF-1α antibody was detected by a secondary antibody labeled with horseradish peroxidase (HRP), and the amount of HRP in each well was measured using a calorimetric substrate reaction and read using a microplate spectrophotometer.
(§2) The ability of candidate decoy molecules to compete for binding of HIF-1α to the HRE element-immobilized on the plate were measured and compared to reveal relative binding affinities. Candidate decoys were added in increasing molar ratios (relative to the amount of oligo immobilized on the plate) to compete for binding to the HIF-1α containing complexes. The amounts of decoys added to the assay included 0.625, 1.25, 2.5, 5, 10 and 20 fold molar excess. A well containing a competing decoy able to bind HIF-1α with high affinity would give a lower absorbance reading as compared to a decoy with low affinity for HIF-1α. All potential decoys were then compared and ranked in order to assess their relative binding affinities.
(§3) The screen was conducted using different decoy concentrations. For each UV absorbance reading, normalization was done by calculating the ratio of absorbance readings of sample vs. wild type control. The bigger ratio represents less competition of binding with HIF-1α when compared with wild-type control. The smaller (smaller than 1.0 or close to 1.0) ratios represent better binding or better competition.

Binder | binding signal [ratio]
B1 | 2.56
B2 | 5.1
B3 | 4.14
B4 | 2.63
B5 | 4.48
B6 | 2.28
B7 | 3.62
B8 | 4.37
B9 | 2.15
B10 | 4.46

Target: T1, HIF-1 (HIF-1alpha/HIF-1beta (ARNT) …)
Experiment: competition; TransAM; two sites
Details: protein: extract; tags: none (endogenous, nuclear extract)
Experimental: as §1, §2, §3

Binder | binding signal [ratio]
B11 | 2.46
B12 | 0.91
B13 | 1.16
B14 | 1.72
B15 | 0.99

Target: T1, HIF-1 (HIF-1alpha/HIF-1beta (ARNT) …)
Experiment: competition; 2.5-fold molar excess
Details: protein: extract; tags: none (endogenous, nuclear extract)

Binder | binding signal [ratio]
B16 | 1.34
B17 | 0.52
B18 | 1.27
B19 | 0.86
B20 | 1.33
B21 | 0.98
B22 | 1.38
B23 | 1.01
B24 | 1.42

Target: T1, HIF-1 (HIF-1alpha/HIF-1beta (ARNT) …)
Experiment: competition; TransAM absorbance ratio vs wild-type control at 2.5; lower = better (all Table 2B lines); 1.22 in Table 5
Details: protein: extract; tags: none (endogenous, nuclear extract)

Binder | binding signal [ratio]
B25 | 1.13
